Consider 2 molecules from publication PMC9537944, “eIF4G1 N-terminal intrinsically disordered domain is a multi-docking station for RNA, Pab1, Pub1, and self-assembly” (Frontiers in Molecular Biosciences, 2022).

Data set [1] concerns the molecule itself. Briefly: NMR paramagnetic relaxation enhancement (intermolecular PRE); 15N-labelled wild-type eIF4G1 1-249 mixed 1:1 with TEMPO spin-labelled eIF4G1 1-249 Q109C at natural isotopic abundance; intensity ratios of 1H-15N HSQC peaks, oxidised against ascorbate-reduced label; 25 mM potassium phosphate pH 6.5, 25 mM NaCl, 1 mM DTT.
Data set [2] concerns the target T1, eIF4G1 1-82 (Saccharomyces cerevisiae, UniProt P39935 1-82).
T1 sequence: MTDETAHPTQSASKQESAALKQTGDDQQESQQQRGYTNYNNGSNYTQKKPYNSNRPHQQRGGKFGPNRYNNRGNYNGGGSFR
Briefly: NMR (1H-15N HSQC titration); shifts centered at R34, R55, G65; new Arg side-chain NeHe signal; NMR: 25 mM potassium phosphate pH 6.5, 25 or 150 mM NaCl, 1 mM DTT, 10% D2O, 25 C, 800 MHz (general NMR conditions; not stated specifically for RNA titrations). Conditions: protein: recombinant; tags: N-terminal gs left after TEV cleavage of TrxA-6xHis; single strand.

B1: eIF4G1_(1-249), N-terminal intrinsically disordered region of eIF4G1 (domain or fragment, Saccharomyces cerevisiae, UniProt P39935 1-249, looked up)
chain: MTDETAHPTQSASKQESAALKQTGDDQQESQQQRGYTNYNNGSNYTQKKPYNSNRPHQQRGGKFGPNRYNNRGNYNGGGSFRGGHMGANSSNVPWTGYYNNYPVYYQPQQMAAAGSAPANPIPVEEKSPVPTKIEITTKSGEHLDLKEQHKAKLQSQERSTVSPQPESKLKETSDSTSTSTPTPTPSTNDSKASSEENISEAEKTRRNFIEQVKLRKAALEKKRKEQLEGSSGNNNIPMKTTPENVEEK
notes: 15N-labelled where it was the observed partner; Minor isoaspartate forms (12%-14%) are reported at positions 41 and 76; In the intermolecular PRE experiment the second copy was the Q109C mutant carrying a TEMPO spin label; also called eIF4G1 IDR; not shown: thioredoxin A, N-terminal, cleaved; 6xHis, internal (between thioredoxin A and the TEV site), cleaved
For B1, the binding result in data set [1] is “binds”.

In the case of AAAAAAAAAAAAAA (ssRNA) [A14], the binding result in data set [2] is “binds”.
